Experiments:
nsp12 (RdRp);nsp7;nsp8 [1] = biological target: T1, nsp12 (RdRp);nsp7;nsp8 (SARS-CoV-2;SARS-CoV-2;SARS-CoV-2, UniProt P0DTD1;P0DTD1;P0DTD1 4393-5324;3860-3942;3943-4140, ||); experiment: EMSA; 2.4 uM protein; settings: protein: recombinant;recombinant;recombinant; tags: ;N-terminal His6 removed by TEV;; copies: 1;1;2
nsp12 (RdRp);nsp7;nsp8 [2] = biological target: T1, nsp12 (RdRp);nsp7;nsp8; experiment: EMSA; 10 mM MgCl2; settings: protein: recombinant;recombinant;recombinant; tags: ;N-terminal His6 removed by TEV;; copies: 1;1;2; hairpin, blunt, no 5' overhang
nsp12 (RdRp);nsp7;nsp8 [3] = biological target: T1, nsp12 (RdRp);nsp7;nsp8; experiment: EMSA; 10 mM MgCl2; broadened shifted bands; settings: protein: recombinant;recombinant;recombinant; tags: ;N-terminal His6 removed by TEV;; copies: 1;1;2

Binder: TTTTCATGCTACGCGTAGTTTTCTACGCG (structured_DNA) [CoV-DNA1]
- binding result (nsp12 (RdRp);nsp7;nsp8 [1]): no binding

Binder: CGCGUAGUUUUCUACGCG (structured_RNA) [CoV-RNA1 truncated]
- binding result (nsp12 (RdRp);nsp7;nsp8 [2]): no binding

Binder: UUUUCAUGCUACGCGUAGUUUUCUACGCG (structured_RNA) [CoV-RNA1]
- binding result (nsp12 (RdRp);nsp7;nsp8 [3]): binds
